The values below come from the supplement of paper PMC12042874.

± gives the uncertainty stated by the source.

The data set can be described thus: amyloid nucleation score (Sup35N fusion, yeast selection) (log enrichment); library NNK2; higher = more nucleation; inactive = no reads after selection. Put shortly: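 The nucleation score is the log enrichment of output over input reads, calculated with DiMSum and centred on the mode score of non-aggregating sequences. Sequences with under 100 input reads were excluded. Reads came from Illumina sequencing of plasmid inserts from psi-negative yeast expressing Sup35N fused to peptides of 20 random codons, induced 24 hours with 100 μM copper sulfate and grown 7 days at 30°C without adenine and uracil.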

In turn, RLVFVFITDG returned an amyloid nucleation score of 2.96 ± 0.054. Next, ADSVLYNCVCRFSSVPQVLR: -0.263 ± 0.31; LKVRKLSLARCVGIHTLQT: 4.4 ± 0.06; MHRLPNNIPTGNQLPLQPSE: -0.41 ± 0.48.

Substance SVWCWDHSILLGFNLCNRKM had an amyloid nucleation score of 6.648 ± 0.062. On to WVGYLRPKKESLCLGFEDSK, for which the amyloid nucleation score came to 3.04 ± 0.12. VKREVLP had an amyloid nucleation score of 0.117 ± 0.37. Next, LGVCICPCRAPEMKDTSHDA: 4.92 ± 0.076; YDVRLFKLTTTSFAIVLSEW: 0.823 ± 0.21; KVYINHGFGNFEVCSRWVFE: -0.055 ± 1.1. The figure for RWIVGQRRKIESWWQMVPIY is 0.81 ± 0.4.

For NKARWAPVRMEALLVAQRVG, the amyloid nucleation score amounted to 1.28 ± 0.38.

TTLRPLYSTWGSQMVFPGLC yielded an amyloid nucleation score of 0.409 ± 0.8. Next, SWCVNVLAYSEKAFSRCVVM: 8.583 ± 0.048; ISRKVAGSRDCINVRSTIGL: -1.14 ± 0.44; NINYGSSA: -0.746 ± 0.78. SWETKVHIYMTDMLFSRHMS gave an amyloid nucleation score of 2.63 ± 0.086. Consider FIVRSLRSSHTKTVPLPACC, for which the amyloid nucleation score result is “inactive”. Next, VYMGSDL: 6.07 ± 0.072; LLAIVVILKSTAPGKRY: “inactive”.

For the substance TIVWLGRPLYTGFKNTKRGH, the amyloid nucleation score result is “inactive”. Next, FCTHPSFGTVMGMRAETGLD: 0.516 ± 0.81. Next, VNPCVWIRIYWRS: -0.014 ± 0.65; NGSDRWQASHRTNWGMVGFG: 0.597 ± 0.44. Next, FFSFGCGSWRTVIVTSRSL: -0.299 ± 1.

Turning to SNAVNCLLCVLTRDLIWMDA, the amyloid nucleation score stood at 8.958 ± 0.067. WVYDVQSCIMTPMSGYWFIL displayed an amyloid nucleation score of -0.476 ± 0.36.

QVLIIPLWKNGLRTIIRWL: the amyloid nucleation score was 0.106 ± 1. The figure for WDTSGRFVLNWVFWEGHPKM is 0.768 ± 0.56.

Turning to CDSRCRYLAEYRFI, the amyloid nucleation score was determined as 0.151 ± 0.27.

With AYDIHTIREMFRSSSRLYGW, the amyloid nucleation score came to 5.854 ± 0.033. AFLRFMKRRQLNLLKYAFCC displayed an amyloid nucleation score of 4.01 ± 0.084. The figure for KFASVYWLGLFPLLMPTVVS is 0.89 ± 0.43; for IAFRTSLYRD it is -1.39 ± 0.48. The figure for RLYCQRFPRFENITIWELLL is -1.71 ± 0.54. Take LSLYIGFYMKGGSCRC: the amyloid nucleation score was found to be 0.007 ± 0.79.

Consider LGHHIVFAVTPKWTYDDDIK, for which the amyloid nucleation score came out at 0.679 ± 0.62. Next, RIMIIGKYVSRMVFGDSFWG: 6.002 ± 0.049; YMYILAVLSVSSLIVNYDLK: “inactive”; KRGRDV: -0.292 ± 0.49. Next, FVHVPPILGAAVTVRAASPK: 0.284 ± 1.1. On to LCPYYNLWS, for which the amyloid nucleation score entry is “inactive”. Next, NNLPTQIYYVLNSPSEVRLN: 0.579 ± 0.31; CITLRYYMDVRLSLHMKRTW: 0.988 ± 0.53.

In the case of CLMDTGVFREYCS, the amyloid nucleation score is -0.585 ± 0.26. The figure for TYSLKFGSVVGRNYNLGY is 2.08 ± 0.1. The figure for YSAPCGGDGESWDGFKMMEH is 0.053 ± 1.1; for ELRPIHIFKFFT it is -0.253 ± 0.4. RVSLLMYGWRVGRTNVCGLC yielded an amyloid nucleation score of 1.41 ± 0.53. With PFYLVRRGWNIWNSNGVECH, the amyloid nucleation score was -0.161 ± 1.1. Take NYILSMLCKMNARCLVTWRI: the amyloid nucleation score amounted to 0.712 ± 0.4. In turn, TTMYARFIFIVRDSEGMYCS registered an amyloid nucleation score of 7.089 ± 0.064. Turning to RGSRNNQVWGQSFFMPQWTA, the amyloid nucleation score is -0.405 ± 0.41. MDCECG came in with an amyloid nucleation score of 1.03 ± 0.3. GLCKFKQVCTNSVGNYVGYF: the amyloid nucleation score is -2.18 ± 0.62. The substance MFLNPQPVFDLISFNVVSTP returned an amyloid nucleation score of 9.306 ± 0.032. The figure for IIWPPMSWELISLNCQCVRK is -0.413 ± 0.63; for VGLCSPWKHALFD it is 3.33 ± 0.073. The figure for VVSPRVTGNME is 0.302 ± 0.23; for SYRLYFFMGFDMLYLCMG it is -0.177 ± 0.79. The figure for YNWVNTPGHVNL is -1.4 ± 0.62; for GKGWKSVVYSNMGRVSGCCK it is 2.81 ± 0.12; for SMYSVYSFYTEIGTL it is -0.441 ± 0.48. Consider CSAITEGCKGFVHDVSGVML, for which the amyloid nucleation score is -0.27 ± 0.56. The figure for DHAGWCSDRWVTDFDFAMGN is 0.829 ± 0.5. FINSHFHYEECPIMGKQSVL returned an amyloid nucleation score of 1.63 ± 0.53.

As for FICCNNSQIRVSFWLRTWYL, the amyloid nucleation score was found to be 3.39 ± 0.048. The figure for TRFLPDAY is -0.903 ± 0.32.

For the substance NKNVSTGWYCVIESI, the amyloid nucleation score came out at 1.26 ± 0.6. KGTYNDIMLRYACCMAGVKR had an amyloid nucleation score of -0.053 ± 0.49. The entry for LLAKNTSRNRFTHDFVPKVR is “inactive”; for ARKCDLFYTFFCTNIFSSVG it is 4.798 ± 0.039. The figure for CFLCMQSLS is 1.34 ± 0.33; for VTNVSQISNSRNVMERSIMF it is -1.2 ± 0.41. Consider VGFLYACYFRGTAVNETGYT, for which the amyloid nucleation score came to 1.15 ± 0.13.

As for RTAINESCQDEMG, the amyloid nucleation score amounted to 5.44 ± 0.073. Next, RVVFKHENLDMWCWMS: 1.47 ± 0.11. As to VMGDWAFSGFSNSNFS, the amyloid nucleation score is -0.931 ± 0.44.

Consider TMELFLRRFYIWIKDIDNGR, for which the amyloid nucleation score result was “inactive”. The figure for RRFCSCQLSKPLIFPMVLYW is -0.454 ± 0.53; for EFYPTHDFVQRDRRVTRLRI it is 0.524 ± 0.81; for KVMNNIL it is -0.093 ± 0.36. The substance PISTSLADR displayed an amyloid nucleation score of 1.21 ± 0.42. On to FKDTWQSPGAVERKGMRTSV, for which the amyloid nucleation score turned out to be 0.365 ± 0.22.

In the case of TPRIS, the amyloid nucleation score is 0.647 ± 0.8.

As to GYTIPLYQYKNWGLE, the amyloid nucleation score is -0.515 ± 1.

Substance QSLIDSVHVALHKLLRRYVK registered an amyloid nucleation score of -0.232 ± 0.65. The entry for CECVFFVQGVLRVGVLYDKF is “inactive”. The figure for SCPMTSYGE is 0.319 ± 0.8; for SHTDYHRFAWMF it is -1.74 ± 0.53. The figure for YHVVVMRSVYTVLTYNRVGA is 0.334 ± 0.65; for KCCILMLKA it is 0.745 ± 0.49; for NVVSLIIQRKLRPAPVGSFR it is 0.218 ± 1.1. On to IFHPSLTSRIPINTRHKVT, for which the amyloid nucleation score amounted to 4.4 ± 0.065. The figure for VKVLSLVFTGMVPMQYSRYA is 11.31 ± 0.049; for WLLWNSECIANCAFTRYSMF it is -0.079 ± 0.33; for NVKTKLCAGSKYSFPF it is 0.213 ± 0.43. In turn, VQKTIVKLLAWLCFRGTAYC yielded an amyloid nucleation score of 0.486 ± 0.8.

Substance IYTNSISACDDVVGKNRVFA gave an amyloid nucleation score of -1.3 ± 1.1. The figure for GIMQCFGSMRMQWCNSDKEC is 5.021 ± 0.037. The figure for YMDNCSYRYSVTESTRNTAG is 0.17 ± 0.74; for SLFCVPSSRKVLFLGRTVVV it is 0.123 ± 1; for TYFLGPLVSNSLRYY it is 4.027 ± 0.04. Next, VVMMSGYILTSTSLVYYHFY: 0.005 ± 0.54; SSTWLGLS: 0.112 ± 1.1; WRPLWSRAIFGS: “inactive”. Turning to CYWERWAS, the amyloid nucleation score is -1.84 ± 0.78. The entry for MRWIFGHAGPSFSCILKKRP is “inactive”. In the case of DVHRWKIWQASG, the amyloid nucleation score is 0.901 ± 0.26. In turn, KRYLTGSEVIVGWCC displayed an amyloid nucleation score of 0.329 ± 0.38. The figure for AADRFVAMKICVLCHLKQSL is 1.88 ± 0.25; for IKTRKHSGIMAC it is 0.552 ± 0.32. Next, ALNYVSCWNALRKFRESVAH: “inactive”; IGRSMGRTFWR: 1.5 ± 0.18; RVNCYYSFRS: 6.026 ± 0.038. Next, SVRGRNDESAMLTLQRELRY: -0.343 ± 1.1; VHMVPHCATW: 1.01 ± 0.38.

For TSMSYLLRFVCGFRCTYSLC, the amyloid nucleation score is 0.854 ± 0.52. DTVNWCDSGVP had an amyloid nucleation score of -0.023 ± 0.65. Substance GNTGSGSDSKLYLAMP registered an amyloid nucleation score of -0.076 ± 0.79. The figure for ANMCELVLLELVIELRGGLA is 3.28 ± 0.088; for VVSCGYARHDVGDFWLRDCR it is 0.481 ± 0.38; for IRCQSVRDIGLYFDLDWVEK it is 2.28 ± 0.085. TNDHQFCESNMRVMSEGIGP registered an amyloid nucleation score of -0.284 ± 1.1.

The substance RVRIGQAGVWAPRPKELTLW showed an amyloid nucleation score of 0.679 ± 0.81. Regarding VWWFIYVLGVVSTDAKVSPS, the amyloid nucleation score entry is “inactive”. Next, GFYIKVFNSEWYALNLDVRL: 4.67 ± 0.075; NYQGI: -0.874 ± 0.56. Next, WYIKF: 1.54 ± 0.3. The substance IGKSEYVEFRLTSSP displayed an amyloid nucleation score of 0.354 ± 0.53. With VKFTVFTQGQALIVPSGLL, the amyloid nucleation score was 5.32 ± 0.084. Next, YIPLVVLHFSVRVWELSYWS: 0.115 ± 1; DIKAWLFVRSDIVDGGFADT: -0.405 ± 0.29; QYRFFVYKLRRQIIYV: -0.191 ± 1.1. The figure for FFRLIGDGGYCCFPCKSDVR is 2.54 ± 0.077; for EVRRCGEEFGNGARMRWMGV it is 0.923 ± 0.28. Next, LASTALVLDP: 1.14 ± 0.31. FMITWGINRS returned an amyloid nucleation score of 4.02 ± 0.043. Next, LAQMQR: -0.169 ± 0.8.
